Data set [1] concerns the target T1, GST-LKB1-STRADα-MO25α complex (Mus musculus, UniProt Q9WTK7).
T1 construct: Constructs expressing the full length wild type and kinase dead mouse LKB1 have been described previously; made in house; host or cells: HEK-293 / HEK-293T cells, co-transfected
T1 sequence (Q9WTK7 1-433 limits assumed): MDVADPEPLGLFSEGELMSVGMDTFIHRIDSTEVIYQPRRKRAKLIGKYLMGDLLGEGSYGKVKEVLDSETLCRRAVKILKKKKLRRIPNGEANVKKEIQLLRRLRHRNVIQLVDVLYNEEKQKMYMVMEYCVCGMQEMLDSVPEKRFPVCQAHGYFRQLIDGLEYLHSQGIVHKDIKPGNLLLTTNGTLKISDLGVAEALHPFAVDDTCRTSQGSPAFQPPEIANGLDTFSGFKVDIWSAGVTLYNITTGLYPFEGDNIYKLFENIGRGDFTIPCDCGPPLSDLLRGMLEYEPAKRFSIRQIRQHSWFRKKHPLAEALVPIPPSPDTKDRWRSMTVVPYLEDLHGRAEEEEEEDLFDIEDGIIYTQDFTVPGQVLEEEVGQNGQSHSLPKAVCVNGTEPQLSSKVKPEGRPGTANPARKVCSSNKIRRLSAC
T1 sequence (Q7RTN6 1-431 partner): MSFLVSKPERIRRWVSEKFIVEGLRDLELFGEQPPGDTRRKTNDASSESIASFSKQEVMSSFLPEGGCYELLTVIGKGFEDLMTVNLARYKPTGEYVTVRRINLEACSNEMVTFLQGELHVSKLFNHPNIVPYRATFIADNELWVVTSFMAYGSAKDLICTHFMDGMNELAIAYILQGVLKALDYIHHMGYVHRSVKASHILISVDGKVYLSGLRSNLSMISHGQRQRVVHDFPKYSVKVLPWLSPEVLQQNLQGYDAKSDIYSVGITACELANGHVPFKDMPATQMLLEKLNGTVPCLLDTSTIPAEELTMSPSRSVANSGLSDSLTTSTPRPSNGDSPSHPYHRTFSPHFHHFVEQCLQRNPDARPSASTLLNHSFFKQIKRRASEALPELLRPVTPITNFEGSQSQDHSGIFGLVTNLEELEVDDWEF
T1 sequence (Q9Y376 1-341 partner): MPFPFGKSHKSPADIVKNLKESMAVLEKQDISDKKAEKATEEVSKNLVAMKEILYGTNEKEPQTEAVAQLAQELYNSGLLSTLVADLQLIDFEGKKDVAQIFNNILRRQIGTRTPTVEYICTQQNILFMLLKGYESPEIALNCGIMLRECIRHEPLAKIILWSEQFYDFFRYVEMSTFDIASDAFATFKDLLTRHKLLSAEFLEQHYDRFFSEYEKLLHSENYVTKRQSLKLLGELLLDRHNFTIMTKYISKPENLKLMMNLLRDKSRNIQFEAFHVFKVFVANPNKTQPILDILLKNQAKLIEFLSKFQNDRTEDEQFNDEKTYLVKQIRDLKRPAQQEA
As to the kind of experiment: LKB1 kinase assay with AMPK T-loop peptide substrate (Example 3). The format is biochemical. The following applies: peptide 10-2000 μM, 0.1 mM ATP, 30 min at 30° C. On the procedure:
FIG. 20: Km and Vmax for a peptide substrate (termed AMPKtide). Assay conditions are described in Example 3.
An assay may be performed as follows. Other assays using such a substrate peptide may be used, for example in a high throughput format. The standard assay (50 μl) contained: 0.3 μg of purified GST-LKB1-STRADα-MO25α complex, 50 mM Tris/HCl pH 7.5, 0.1 mM EGTA, 0.1% (by vol) 2-mercaptoethanol, 10 mM magnesium acetate, 0.1 mM [γ^32P]ATP (˜200 cpm/pmol) and T-loop peptide ([…], 10-2000 μM). The assays were carried out for 30 min at 30° C., then terminated by pipetting the reaction mixture onto a 1 cm square of p81 paper, which was washed with 6 changes of 250 ml of 50 mM phosphoric acid (2 min each wash), the paper washed once in 200 ml of acetone and dried. Radioactivity bound to the p81 paper was quantitated by Cherenkov counting. 1 unit of activity is the amount of enzyme that catalyses the phosphorylation of 1 nmol of peptide per minute.

For another data set, the target named is T2, AMPK (Homo sapiens, UniProt Q13131).
T2 construct: Endogenous AMPK was immunoprecipitated from the cell extracts and assayed; endogenous in cells; host or cells: HeLa cells (control, or stably expressing wild type or kinase-dead LKB1)
As to the kind of experiment: Activation and Thr-172 phosphorylation of endogenous AMPK in HeLa cells with or without stably expressed LKB1. The format is cell-based. The note with it: earlier unpublished results.

The target of data set [2] is T3, Flag-tagged STRADβ, Q9C0K7.
T3 chain: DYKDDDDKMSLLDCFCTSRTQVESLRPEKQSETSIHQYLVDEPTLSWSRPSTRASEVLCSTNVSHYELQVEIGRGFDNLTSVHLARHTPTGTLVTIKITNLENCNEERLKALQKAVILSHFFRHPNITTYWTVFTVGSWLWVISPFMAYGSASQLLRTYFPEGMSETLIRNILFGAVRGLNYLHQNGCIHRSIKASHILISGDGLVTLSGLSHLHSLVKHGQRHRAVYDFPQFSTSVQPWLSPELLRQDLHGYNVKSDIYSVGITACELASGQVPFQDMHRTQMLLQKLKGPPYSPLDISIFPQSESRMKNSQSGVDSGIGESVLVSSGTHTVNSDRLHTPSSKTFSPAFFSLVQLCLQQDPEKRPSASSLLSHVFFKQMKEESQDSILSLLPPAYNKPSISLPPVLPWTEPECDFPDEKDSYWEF

The target in data set [3] is T4, Flag-tagged STRADα, Q7RTN6.
T4 chain: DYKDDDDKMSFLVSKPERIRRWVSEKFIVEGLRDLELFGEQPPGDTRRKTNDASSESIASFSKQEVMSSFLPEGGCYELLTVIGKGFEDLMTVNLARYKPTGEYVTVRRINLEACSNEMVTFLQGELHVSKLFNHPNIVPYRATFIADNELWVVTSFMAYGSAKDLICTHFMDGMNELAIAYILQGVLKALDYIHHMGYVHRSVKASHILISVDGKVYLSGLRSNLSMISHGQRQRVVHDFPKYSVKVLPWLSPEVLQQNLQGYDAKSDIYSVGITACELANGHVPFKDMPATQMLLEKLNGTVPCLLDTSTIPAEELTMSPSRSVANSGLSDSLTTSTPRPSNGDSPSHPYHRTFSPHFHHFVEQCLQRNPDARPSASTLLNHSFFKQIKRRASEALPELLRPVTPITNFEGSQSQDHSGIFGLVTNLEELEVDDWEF

The target in a further data set is T5, Flag-tagged STRADα (human, UniProt Q7RTN6 1-431, limits assumed).
T5 construct: pCMV5 vector; also called Flag-STRADα; FLAG-STRADα
T5 sequence: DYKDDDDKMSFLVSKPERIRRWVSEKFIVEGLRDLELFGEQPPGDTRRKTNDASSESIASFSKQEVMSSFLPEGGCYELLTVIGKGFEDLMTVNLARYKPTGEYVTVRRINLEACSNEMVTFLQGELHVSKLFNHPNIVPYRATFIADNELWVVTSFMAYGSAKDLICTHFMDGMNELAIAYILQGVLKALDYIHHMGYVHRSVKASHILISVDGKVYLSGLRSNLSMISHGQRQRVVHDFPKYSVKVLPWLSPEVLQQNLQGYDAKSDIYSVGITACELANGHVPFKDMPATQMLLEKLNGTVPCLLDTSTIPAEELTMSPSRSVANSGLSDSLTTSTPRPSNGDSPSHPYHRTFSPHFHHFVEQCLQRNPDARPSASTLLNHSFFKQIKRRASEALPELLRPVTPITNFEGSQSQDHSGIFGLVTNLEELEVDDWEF
As to the kind of experiment: heterotrimeric complex purified through GST-LKB1 from co-transfected 293 cells, colloidal blue gel and blots. As for the experimental part: (§1) FIG. 4. MO25α is associated with LKB1 through STRAD (A) 293 cells were transfected with plasmids encoding for the expression of the indicated GST fusion proteins together with Myc-MO25α. 36 h post transfection, the GST tagged proteins were affinity purified from the cell lysates using glutathione-Sepharose as described in Materials and Methods. […] 5 μg of total cell lysates prior to affinity purification were also subjected to immunoblotting with anti-Myc antibody to ensure that Myc-MO25α was expressed at similar levels in each co-transfection (lower panel). (B) N-terminal GST tagged LKB1 was expressed in 293 cells in the presence or absence of Flag-STRADα and purified as above. The purified proteins were subjected to SDS-polyacrylamide gel electrophoresis and visualised by Colloidal blue staining (upper panel). The faint protein band indicated, corresponding to an endogenous protein of 40-kDa (marked *), was identified by tryptic peptide mass-spectral fingerprint as endogenously expressed MO25α (with 38% sequence coverage). The purified proteins were also immunoblotted with the indicated antibodies (lower panels). (C) As above except that GST-LKB1 was expressed in 293 cells together with the indicated isoforms of Flag-STRAD and Myc-MO25 and the proteins visualised by colloidal blue staining were also immunoblotted with the indicated antibodies. For all panels, similar results were obtained in at least 3 separate experiments.
(§2) Expression of GST-fusion proteins in 293 cells and affinity purification. 10-cm diameter dishes of 293 cells were transiently transfected with 3 to 10 μg of the pEBG-2T constructs using a modified calcium phosphate method (Alessi et al., 1996). 36 h post-transfection, the cells were lysed and the clarified lysates were incubated for 1 h on a rotating platform with glutathione-Sepharose (25 μl/dish of lysate) previously equilibrated in lysis Buffer.

A further data set has as its target T6, Flag-tagged STRADβ (human, UniProt Q9C0K7 1-418).
T6 construct: pCMV5 vector; also called Flag-STRADβ; FLAG-STRADβ
T6 sequence: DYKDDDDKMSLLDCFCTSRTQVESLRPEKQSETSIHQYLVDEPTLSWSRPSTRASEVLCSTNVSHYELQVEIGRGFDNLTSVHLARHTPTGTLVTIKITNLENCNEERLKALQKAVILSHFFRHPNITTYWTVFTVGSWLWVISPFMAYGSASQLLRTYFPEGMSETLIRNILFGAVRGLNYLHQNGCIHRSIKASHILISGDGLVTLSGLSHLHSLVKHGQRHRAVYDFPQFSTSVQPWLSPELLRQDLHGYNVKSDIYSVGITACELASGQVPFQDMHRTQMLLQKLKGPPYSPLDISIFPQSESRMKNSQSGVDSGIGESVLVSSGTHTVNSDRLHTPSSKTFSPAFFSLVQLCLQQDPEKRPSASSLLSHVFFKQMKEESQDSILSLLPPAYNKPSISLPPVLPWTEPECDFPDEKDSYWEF
Described as above. As for the experimental part: as §1, §2

Usually Km stands for the substrate concentration at which the rate is half of its maximum.

T2 sequence (Q13131 whole entry): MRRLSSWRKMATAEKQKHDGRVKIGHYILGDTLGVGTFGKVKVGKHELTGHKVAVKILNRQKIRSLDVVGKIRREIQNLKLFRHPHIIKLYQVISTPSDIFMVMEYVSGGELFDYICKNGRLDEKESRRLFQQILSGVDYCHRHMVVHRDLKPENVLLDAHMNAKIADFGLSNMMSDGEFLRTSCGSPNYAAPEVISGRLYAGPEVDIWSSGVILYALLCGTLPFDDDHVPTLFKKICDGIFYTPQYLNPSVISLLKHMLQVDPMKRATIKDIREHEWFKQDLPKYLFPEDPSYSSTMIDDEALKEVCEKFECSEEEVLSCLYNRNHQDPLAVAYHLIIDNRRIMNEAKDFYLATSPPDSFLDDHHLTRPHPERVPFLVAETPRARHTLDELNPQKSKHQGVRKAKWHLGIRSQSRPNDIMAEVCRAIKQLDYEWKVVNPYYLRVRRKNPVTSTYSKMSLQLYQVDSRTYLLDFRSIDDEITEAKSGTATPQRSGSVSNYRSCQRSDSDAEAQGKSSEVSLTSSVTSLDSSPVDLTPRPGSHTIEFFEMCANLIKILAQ
T2 sequence (Q9Y478 2-270 partner limits assumed): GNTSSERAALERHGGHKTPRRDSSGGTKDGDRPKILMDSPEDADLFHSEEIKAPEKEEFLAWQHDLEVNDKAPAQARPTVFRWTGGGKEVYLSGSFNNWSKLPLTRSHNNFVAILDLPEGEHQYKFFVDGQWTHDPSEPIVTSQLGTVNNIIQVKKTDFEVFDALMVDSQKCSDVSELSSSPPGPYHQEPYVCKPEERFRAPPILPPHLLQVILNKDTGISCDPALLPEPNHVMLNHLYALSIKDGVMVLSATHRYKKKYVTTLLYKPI
T2 sequence (P54619 whole entry partner): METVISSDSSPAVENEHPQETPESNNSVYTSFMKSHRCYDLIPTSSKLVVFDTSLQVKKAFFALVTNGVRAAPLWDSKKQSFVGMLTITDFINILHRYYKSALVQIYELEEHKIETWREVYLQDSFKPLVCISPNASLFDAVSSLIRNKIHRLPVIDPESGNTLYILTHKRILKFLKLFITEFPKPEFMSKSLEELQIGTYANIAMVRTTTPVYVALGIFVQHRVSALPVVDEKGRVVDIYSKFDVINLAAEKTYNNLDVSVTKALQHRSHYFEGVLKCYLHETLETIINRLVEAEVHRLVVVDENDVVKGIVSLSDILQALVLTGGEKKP

Take “LSNMMSDGEFLRTSCGSPNRRR [AMPKtide, human AMPKα1 residues 163-181 with 3 additional Arg residues added to the C-terminal]”: in data set [1], the Km came to 1800 ± 480 µM and the Vmax is given as 23.4±3.5.
For the molecule `CN(C)C(=N)N=C(N)N` [metformin], the “activation of AMPK” value at AMPK is “not activated”.

B1: N-terminal GST tagged wild type LKB1 (protein)
chain: MDVADPEPLGLFSEGELMSVGMDTFIHRIDSTEVIYQPRRKRAKLIGKYLMGDLLGEGSYGKVKEVLDSETLCRRAVKILKKKKLRRIPNGEANVKKEIQLLRRLRHRNVIQLVDVLYNEEKQKMYMVMEYCVCGMQEMLDSVPEKRFPVCQAHGYFRQLIDGLEYLHSQGIVHKDIKPGNLLLTTNGTLKISDLGVAEALHPFAVDDTCRTSQGSPAFQPPEIANGLDTFSGFKVDIWSAGVTLYNITTGLYPFEGDNIYKLFENIGRGDFTIPCDCGPPLSDLLRGMLEYEPAKRFSIRQIRQHSWFRKKHPLAEALVPIPPSPDTKDRWRSMTVVPYLEDLHGRAEEEEEEDLFDIEDGIIYTQDFTVPGQVLEEEVGQNGQSHSLPKAVCVNGTEPQLSSKVKPEGRPGTANPARKVCSSNKIRRLSACKQQ
As for B1, the “LKB1 activity (autophosphorylation and phosphorylation of MBP)” value in data set [2] was “LKB1 was only activated by STRADβ in the presence of MO25 isoforms”. Also, in data set [3], the “LKB1 activity (autophosphorylation and phosphorylation of MBP)” value was “co-expression with STRADα induced an 4-fold increase in LKB1 activity”; the Relative activation (MBP): 32P phosphorylation of MBP by affinity purified GST-LKB1-WT co-expressed with STRADα (lane 2), GST-LKB1 alone (lane 1) = 1 is 3.9.

B2: N-terminal Myc-tagged MO25β (other)
chain: MEQKLISEEDLPLFSKSHKNPAEIVKILKDNLAILEKQDKKTDKASEEVSKSLQAMKEILCGTNEKEPPTEAVAQLAQELYSSGLLVTLIADLQLIDFEGKKDVTQIFNNILRRQIGTRSPTVEYISAHPHILFMLLKGYEAPQIALRCGIMLRECIRHEPLAKIILFSNQFRDFFKYVELSTFDIASDAFATFKDLLTRHKVLVADFLEQNYDTIFEDYEKLLQSENYVTKRQSLKLLGELILDRHNFAIMTKYISKPENLKLMMNLLRDKSPNIQFEAFHVFKVFVASPHKTQPIVEILLKNQPKLIEFLSSFQKERTDDEQFADEKNYLIKQIRDLKKTAP
notes: also called Myc-MO25β; myc-MO25β
On to B2, for which the binding result with Flag-tagged STRADα and in the data set with Flag-tagged STRADβ was “binds” throughout.

The values are drawn from US20070036793A1, “Methods for use of an lkb1/strad7mo25 complex” (priority 2003, published 2007).
